Test results as given in patent US20260184804A1 (KEY2BRAIN, published 2026).
Numbering of substitutions follows the chain as printed. In names and notes the source's numbering stands.

Assays:
[1] = biological target: T1, His-tagged ectodomain of mouse transferrin receptor 1 (mTfR1), amino acids S122-F763 (mouse, UniProt Q62351 122-763); assay: SPR (Biacore T200); mTfR1 amine-coupled on CM5, KB_A01 as analyte
T1 construct: Made in CHO cells; also called mouse TfR1
Experimental: The contact time was 150 s for each concentration at […] with a final dissociation step of 500 s. […] At the end of each single cycle run, the mTfR1 surface was fully regenerated by an injection of 10 mM NaOH for 30 s. After each single cycle kinetic run, blank run was performed and used for baseline correction. The data with respect to the association rate constant (ka), the dissociation rate constant (kd) and the equilibrium dissociation constant (KD) was evaluated using Biacore T200 software evaluation tool applying a Langmuir 1:1 model.

[2] = biological target: T2, His-tagged ectodomain of human transferrin receptor 1 (hTfR1), amino acids R121-F760 (human, UniProt P02786 121-760); assay: SPR; hTfR1 pre-complexed with immobilised hTf
T2 construct: Made in CHO cells, purified by IMAC; also called human TfR1; ectodomain of hTfR1
T2 sequence (P02786 other isoform, or with tags, fused parts or gaps limits assumed): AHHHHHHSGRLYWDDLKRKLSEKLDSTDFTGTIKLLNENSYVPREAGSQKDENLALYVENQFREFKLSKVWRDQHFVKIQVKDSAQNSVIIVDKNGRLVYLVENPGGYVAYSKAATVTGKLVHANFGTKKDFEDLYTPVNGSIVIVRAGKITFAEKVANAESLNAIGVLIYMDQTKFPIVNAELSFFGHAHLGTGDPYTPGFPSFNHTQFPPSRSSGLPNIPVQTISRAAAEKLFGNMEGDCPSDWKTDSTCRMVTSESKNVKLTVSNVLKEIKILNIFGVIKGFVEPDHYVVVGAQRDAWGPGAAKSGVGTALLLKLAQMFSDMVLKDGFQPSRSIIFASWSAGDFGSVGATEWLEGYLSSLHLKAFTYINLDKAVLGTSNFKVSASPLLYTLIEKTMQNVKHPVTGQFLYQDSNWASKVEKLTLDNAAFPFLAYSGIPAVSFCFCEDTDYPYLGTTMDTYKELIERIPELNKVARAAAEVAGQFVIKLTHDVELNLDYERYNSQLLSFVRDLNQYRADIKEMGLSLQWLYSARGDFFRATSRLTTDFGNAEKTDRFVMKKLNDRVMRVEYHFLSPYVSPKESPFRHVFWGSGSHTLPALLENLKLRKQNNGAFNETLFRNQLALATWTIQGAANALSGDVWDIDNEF

[3] = biological target: T2, His-tagged ectodomain of human …; assay: SPR (Biacore T200, single-cycle); hTfR1 captured on amine-coupled hTf, binder as analyte 6.25-100 nM
[4] = biological target: T2, His-tagged ectodomain of human …; assay: SPR (Biacore T200); hTfR1 amine-coupled (~1000 RU), VHH at 50 nM; X = binding similar to control
Experimental: (§1) Briefly, hTfR1 was covalently immobilized to the surface of a CM5 chip (Cytiva) by amine coupling using standard reagents. Human TfR1 was diluted to 15 μg/mL in 10 mM sodium acetate pH 5.5 and immobilizing level was aimed to 1000 response units (RUs). Subsequently, all VHHs were diluted in running buffer (PBS supplemented with 0.05% Tween® 20) to 50 nM. […] Similarly, KB_A15 was also only tested fused to a His6 tag.
(§2) KB_A20-KB_A31 were only produced in CHO cells and purified by PrismA™ resin.

[5] = biological target: T2, His-tagged ectodomain of human …; assay: SPR (Biacore T200); hTfR1 amine-coupled (~1000 RU), single concentration; - = no apparent binding
Experimental: as §1, §2

[6] = biological target: T1, His-tagged ectodomain of mouse …; assay: phage ELISA on coated mTfR1 (1 µg/ml)
[7] = biological target: T2, His-tagged ectodomain of human …; assay: SPR (Biacore T200); hTfR1 amine-coupled (~1000 RU), VHH at 50 nM; (-) = binding affinity severely decreased
Experimental: as §1, §2

[8] = biological target: T2, His-tagged ectodomain of human …; assay: SPR (Biacore T200); hTfR1 amine-coupled (~1000 RU), VHH at 50 nM; (X) = binding affinity decreased
Experimental: as §1, §2

[9] = biological target: T2, His-tagged ectodomain of human …; assay: SPR (Biacore T200); hTfR1 amine-coupled (~2300 RU), single concentration
Experimental: (§3) Briefly, hTfR1 was covalently immobilized to the surface of a CM5 chip (Cytiva) by amine coupling using standard reagents. […] Subsequently, all six VHHs were diluted in running buffer (PBS supplemented with 0.05% Tween® 20 (PBS-T)) to 100 nM. A signal equal or higher than the corresponding WT was regarded as “binding similar to WT” (see Table 11).

[10] = biological target: T2, His-tagged ectodomain of human …; assay: SPR (Biacore 8K, single-cycle); hTfR1 amine-coupled on CM5, fusion as analyte 0.25-64 nM
[11] = biological target: T2, His-tagged ectodomain of human …; assay: SPR (Biacore T200); hTfR1 amine-coupled (~2300 RU), VHH at 100 nM; column: binding to hTfR1 similar to corresponding WT VHH
Experimental: as §3

T1 sequence (Q62351 other isoform, or with tags, fused parts or gaps limits assumed): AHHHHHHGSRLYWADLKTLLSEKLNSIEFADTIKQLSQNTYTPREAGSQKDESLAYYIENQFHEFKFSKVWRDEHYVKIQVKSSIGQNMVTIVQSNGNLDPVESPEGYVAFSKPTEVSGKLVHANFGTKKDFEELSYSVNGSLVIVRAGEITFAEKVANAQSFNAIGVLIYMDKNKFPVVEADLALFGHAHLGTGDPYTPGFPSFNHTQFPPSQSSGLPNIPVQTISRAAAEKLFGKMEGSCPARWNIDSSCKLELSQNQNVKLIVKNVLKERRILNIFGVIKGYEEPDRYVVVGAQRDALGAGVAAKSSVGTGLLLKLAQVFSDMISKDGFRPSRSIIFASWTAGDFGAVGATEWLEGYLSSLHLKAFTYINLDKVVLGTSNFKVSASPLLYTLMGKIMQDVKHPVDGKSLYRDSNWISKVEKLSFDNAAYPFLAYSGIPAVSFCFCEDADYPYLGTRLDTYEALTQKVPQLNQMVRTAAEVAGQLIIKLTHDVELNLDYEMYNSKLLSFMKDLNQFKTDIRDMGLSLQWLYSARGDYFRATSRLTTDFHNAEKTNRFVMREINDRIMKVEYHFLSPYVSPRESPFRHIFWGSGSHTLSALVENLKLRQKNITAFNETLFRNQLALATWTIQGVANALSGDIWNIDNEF

B1: KB_A01, monomeric free VHH with C-terminal 6xHis tag and C-tag (VHH)
VHH: QVQLQESGGGSVQAGGSLSLSCAASGSIFGSKRMGWFRQAPGEQRDVVATITYRGTTEYADSVKGRFTISRDNAKNTVYLQMNNLKPEDTAVYYCWMFTTDNYWGQGTQVTVSS
notes: From the periplasm of E. coli
In the case of B1, the binding result [1] is reported as “no binding (tested: 6.25 to 100 nM)”, the “fold lower affinity (KD) than the bivalent BA1” value [2] is reported as 206 fold and the Kd [3] is reported as 4.1 nM. The koff [3] was 0.00414 s⁻¹ and the kon [3] was 1.01e+06 M⁻¹ s⁻¹.

B2: KB_A18 (humanized variant of KB_A01) (VHH)
VHH: B1 VHH with Q1E, Q5V, S11L, A14P, S19R, E43K, V78I, N84S, K86R, Q109L
notes: Free VHH from CHO cells without tag; also run as His6-tagged E. coli form; also called KB3_A18
B2: binds [4].

B3: KB_A28 (KB_A18 plus A74S) (VHH)
VHH: EVQLVESGGGLVQPGGSLRLSCAASGSIFGSKRMGWFRQAPGKQRDVVATITYRGTTEYADSVKGRFTISRDNSKNTIYLQMNSLRPEDTAVYYCWMFTTDNYWGQGTLVTVSS
notes: Free VHH from CHO cells, no tag
B3: binds [4].

B4: KB_A17 (humanized variant of KB_A01) (VHH)
VHH: B3 VHH with S74A, I78V, L109Q
notes: Free VHH from CHO cells without tag; also run as His6-tagged E. coli form
B4: binds [4].

B5: KB_A16 (humanized variant of KB_A01) (VHH)
VHH: B3 VHH with L11S, S74A, I78V, L109Q
notes: Free VHH from CHO cells without tag
B5: binds [4].

B6: KB_A31 (KB_A18 plus M97R) (VHH)
VHH: B3 VHH with S74A, M97R
notes: as for B3
B6: no binding (tested: 50 nM) [5].

B7: KB_A25 (KB_A18 plus A49S) (VHH)
VHH: B3 VHH with A49S, S74A
notes: as for B3
B7: no binding (tested: 50 nM) [5].

B8: KB_A01 clone displayed on phage (VHH)
VHH: B1 VHH
B8: no binding [6].

B9: KB_A30 (KB_A18 plus W96A) (VHH)
VHH: B3 VHH with S74A, W96A
notes: as for B3
B9: no binding (tested: 50 nM) [5].

B10: KB_A21 (KB_A18 plus Q44G) (VHH)
VHH: B3 VHH with Q44G, S74A
notes: as for B3
B10: binds [4].

B11: KB_A22 (KB_A18 plus R45L) (VHH)
VHH: B3 VHH with R45L, S74A
notes: as for B3
B11: binds [4].

B12: KB_A20 (KB_A18 plus F37V) (VHH)
VHH: B3 VHH with F37V, S74A
notes: Free VHH from CHO cells, no tag, purified on PrismA resin
B12: no binding (tested: 50 nM) [5].

B13: KB_A24 (KB_A18 plus V47W) (VHH)
VHH: B3 VHH with V47W, S74A
notes: as for B3
B13: binds [7].

B14: KB_A27 (KB_A18 plus E58Y) (VHH)
VHH: B3 VHH with E58Y, S74A
notes: as for B3
B14: binds [8].

B15: KB_A23 (KB_A18 plus D46E) (VHH)
VHH: B3 VHH with D46E, S74A
notes: as for B3
B15: binds [4].

B16: KB_A26 (KB_A18 plus T50A) (VHH)
VHH: B3 VHH with T50A, S74A
notes: as for B3
B16: no binding (tested: 50 nM) [5].

B17: ProA positive control 1 with GGHHHHHH tag (VHH)
VHH: QVQLQESGGGLVQPGGSLRLSCAASGFTFSSYAMSWVRQAPGKGLEWVSAISGSGGSTYYADSVKGRFTISRDNSKNTLYLQMNSLRAEDTAVYYCGTDMEVWGKGTTVTVSSGGHHHHHH
B17: no binding (tested: 100 nM) [9].

B18: KB_A19 (humanized variant of KB_A01) (VHH)
VHH: EVQLVESGGGLVQPGGSLRLSCAASGSIFGSKRMGWVRQAPGKGLEWVSAITYRGTTYYADSVKGRFTISRDNSKNTLYLQMNSLRAEDTAVYYCARFTTDNYWGQGTLVTVSS
notes: as for B4
B18: no binding (tested: 50 nM) [5].

B19: scFv-KB_A01 (scFv of 3D6 at the N-terminus of KB_A01) (bispecific antibody)
chain: EVKLVESGGGLVKPGASLKLSCAASGFTFSNYGMSWVRQNSDKRLEWVASIRSGGGRTYYSDNVKGRFTISRENAKNTLYLQMSSLKSEDTALYYCVRYDHYSGSSDYWGQGTTVTVSGGGGSGGGGSGGGGSYVVMTQTPLTLSVTIGQPASISCKSSQSLLDSDGKTYLNWLLQRPGQSPKRLIYLVSKLDSGVPDRFTGSGSGTDFTLKISRIEAEDLGLYYCWQGTHFPRTFGGGTKLEIKGGGGSGGGGSGGGGSQVQLQESGGGSVQAGGSLSLSCAASGSIFGSKRMGWFRQAPGEQRDVVATITYRGTTEYADSVKGRFTISRDNAKNTVYLQMNNLKPEDTAVYYCWMFTTDNYWGQGTQVTVSSGSENLYFQSHHHHHH
notes: Monovalent for TfR1; also called scFv-VHH
B19 gave a Kd [10] of 3.16 nM, a koff [10] of 0.00539 s⁻¹ and a kon [10] of 1.7e+06 M⁻¹ s⁻¹.

B20: KB_A01-scFv (scFv of 3D6 at the C-terminus of KB_A01) (bispecific antibody)
chain: QVQLQESGGGSVQAGGSLSLSCAASGSIFGSKRMGWFRQAPGEQRDVVATITYRGTTEYADSVKGRFTISRDNAKNTVYLQMNNLKPEDTAVYYCWMFTTDNYWGQGTQVTVSSGGGGSGGGGSGGGGSEVKLVESGGGLVKPGASLKLSCAASGFTFSNYGMSWVRQNSDKRLEWVASIRSGGGRTYYSDNVKGRFTISRENAKNTLYLQMSSLKSEDTALYYCVRYDHYSGSSDYWGQGTTVTVSGGGGSGGGGSGGGGSYVVMTQTPLTLSVTIGQPASISCKSSQSLLDSDGKTYLNWLLQRPGQSPKRLIYLVSKLDSGVPDRFTGSGSGTDFTLKISRIEAEDLGLYYCWQGTHFPRTFGGGTKLEIKGSENLYFQSHHHHHH
notes: Monovalent for TfR1; also called VHH-scFv
With B20 the Kd [10] was 3.44 nM, the koff [10] was 0.0075 s⁻¹ and the kon [10] was 2.18e+06 M⁻¹ s⁻¹.

B21: KB_A12 (KB_A01: S19R, N84S) with GGHHHHHH tag (VHH)
VHH: QVQLQESGGGSVQAGGSLRLSCAASGSIFGSKRMGWFRQAPGEQRDVVATITYRGTTEYADSVKGRFTISRDNAKNTVYLQMNSLKPEDTAVYYCWMFTTDNYWGQGTQVTVSSGGHHHHHH
B21: binds [11].

B22: KB_A15 (KB_A01: S19R, V78I, N84S), His6-tagged (VHH)
VHH: B1 VHH with S19R, V78I, N84S
notes: also called KB3_A15
B22: binds [4].
